Test results taken from doi:10.1101/756791 (bioRxiv, 2019).

How the values were obtained:
[1] = molecular target: T1, Rpn10/S5a (UIM motifs: 196-306aa) (UniProt P55036 196-306); assay: ITC
T1 sequence (looked up): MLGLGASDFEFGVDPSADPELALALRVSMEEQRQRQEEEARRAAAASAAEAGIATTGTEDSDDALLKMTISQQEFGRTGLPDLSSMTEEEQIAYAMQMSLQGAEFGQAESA

[2] = molecular target: T1, Rpn10/S5a (UIM motifs: 196-306aa); assay: NMR titration
[3] = molecular target: hRpn13 (Pru domain: 1-150aa) (human, UniProt Q16186 1-150); assay: other fluorescence titration
[4] = molecular target: T1, Rpn10/S5a (UIM motifs: 196-306aa); assay: NMR titration; remark: listed apart in the source

Chain of hRpn13 (Pru domain: 1-150aa) (Q16186 1-150): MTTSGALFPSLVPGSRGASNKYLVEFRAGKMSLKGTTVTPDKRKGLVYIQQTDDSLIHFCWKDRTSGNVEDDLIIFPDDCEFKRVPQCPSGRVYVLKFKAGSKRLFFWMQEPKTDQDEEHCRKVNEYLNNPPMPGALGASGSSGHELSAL

B1: viral Ubiquitin from Autographa Californica Multiple Nucleo-Polyhedrosis Virus (AcMNPV) (natural protein)
chain: not shown
- Kd [1]: 85 µM
- dH [1]: -4.5 ± 0.3 kcal/mol
- stoichiometry N [1]: 2 ± 0.1
- KD of the UIM1 site [2]: 331 µM
- KD of the UIM2 site [2]: 21 µM
- Kd [3]: 0.04 µM
- Kd [4]: 78 µM
